From US20140045211A1 (University of California, published 2014) come the findings set out here.

The target of test [1] is T1, CCR1 on HEK293 cells / HEK293 membranes stably expressing CCR1 (UniProt P32246 1-355, limits assumed).
T1 construct: whole, on cells; also called chemokine receptor CCR1
T1 sequence (looked up): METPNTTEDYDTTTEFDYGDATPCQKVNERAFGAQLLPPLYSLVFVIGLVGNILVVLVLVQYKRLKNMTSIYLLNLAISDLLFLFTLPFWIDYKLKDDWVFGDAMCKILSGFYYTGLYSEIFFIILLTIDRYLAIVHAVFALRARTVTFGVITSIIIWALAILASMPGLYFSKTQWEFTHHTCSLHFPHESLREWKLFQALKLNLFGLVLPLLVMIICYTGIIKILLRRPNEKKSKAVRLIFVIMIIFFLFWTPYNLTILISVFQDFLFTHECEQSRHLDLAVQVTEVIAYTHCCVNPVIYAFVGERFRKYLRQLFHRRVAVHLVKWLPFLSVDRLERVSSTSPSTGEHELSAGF
As to the kind of experiment: SPA competition assay, HEK293 cells/membranes expressing CCR1; competitor (tracer) CCL3-biotin with 125I-streptavidin. As to the method:
(§1) Scintillation proximity assay (SPA) binding assays (GE Healthcare, Piscataway, N.J.) were conducted essentially as previously described. HEK293 cells stably expressing CCR1 were used for these assays, and untransfected HEK293 cells were used as a control. Assays were undertaken in a 96-well plate format and each data point was assayed in triplicate on a Microbeta plate counter (Perkin Elmer) for 1 min per well. Each well contained 20,000 cells, 0.2 mg WGA-PVT-SPA beads, increasing concentrations of unlabeled competitor chemokine, and either […] ¹²⁵I-CCL3 or […] ¹²⁵I-Streptavidin +400 pM CCL3-Biotin, in a total volume of 100 μL. IC₅₀ values were obtained by nonlinear regression curve fitting using Prism software (GraphPad, La Jolla, Calif.).
(§2) In order to test the use of ¹²⁵I-streptavidin as a surrogate radiolabel in a chemokine SPA assay, competition assays using membranes containing the chemokine receptor CCR1 were performed. CCL3 was used for these assays because ¹²⁵I-CCL3 is commercially available, allowing for a direct comparison. After immobilization of membranes to SPA beads, either radiolabeled chemokine, or a combination of biotinylated chemokine and ¹²⁵I-labeled streptavidin was added. […] In contrast, no binding of CCL3 or competition with CCL14 was observed when CCR1-expressing membranes were replaced with untransfected HEK293 membranes. […]

The target in test [2] is T1, CCR1 on HEK293 cells / HEK293 membranes …. The test can be described thus: SPA competition assay, HEK293 cells/membranes expressing CCR1; competitor (tracer) 125I-CCL3. Here is the method: as §1, §2

B1: CCL14 (unlabeled; functional form containing residues 9-74) (ligand)
chain: GPYHPSECCFTYTTYKIPRQRIMDYYETNSQCSKPGIVFITKRGHSVCTNPSDKWVQDYIKDMKEN
notes: Whether the entry is already trimmed to 9-74 is so no residue range is applied; Expressed as a His-ubiquitin fusion and cleaved with Usp2-cc to leave the native N-terminus; also called CCL14/HCC-1; HCC-1 (9-74)
For the molecule B1, the values for the IC50 in test [1] and in test [2] were 0.9 nM and 2.6 nM, respectively.

Broadly, the IC50 is the concentration at which inhibition is half-maximal.
